Data on 2 molecules can be found in patent US11512128B2, “VEGF/DLL4 binding agents and uses thereof” (MEREO BIOPHARMA 5, INC., priority 2011, dated 2022).

Assay [1] addresses T1, mouse VEGF165 (Mus musculus, UniProt Q00731).
T1 sequence (Q00731 27-190 isoform Q00731-2): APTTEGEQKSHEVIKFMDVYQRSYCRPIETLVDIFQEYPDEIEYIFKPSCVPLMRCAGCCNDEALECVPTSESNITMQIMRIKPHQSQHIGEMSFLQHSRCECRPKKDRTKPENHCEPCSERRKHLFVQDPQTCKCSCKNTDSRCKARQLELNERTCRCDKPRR
The experiment in a line: Biacore binding affinity (KD) to mouse VEGF. To be noted: Biacore 2000, biotinylated mouse VEGF165 on streptavidin chip; read-out: KD mVEGF. The procedure: (§1) The KDs of parental antibodies anti-VEGF 219R45 (IgG format), anti-DLL4 21R79 (IgG format), anti-DLL4 21M18 (IgG format) and bispecific antibodies 219R45-MB-21M18 and 219R45-MB-21R79 were determined using a Biacore 2000 system from Biacore LifeSciences (GE Healthcare). Recombinant human DLL4-Fc or mouse DLL4-Fc proteins were immobilized on CM5 carboxyl chips using standard amine-based chemistry (NHS/EDC) and blocked with ethanolamine. Recombinant human VEGF165 or mouse VEGF165 were biotinylated and immobilized on streptavidin chips. The antibodies were serially diluted 2-fold from 100 nM to 0.78 nM in HBS-P (0.01M HEPES pH7.4, 0.15M NaCl, 0.005% v/v Polysorbate 20). For each antibody, all 8 dilutions were sequentially injected over a specific chip. Kinetic data were collected over time and were fit using the simultaneous global fit equation to yield affinity constants (KD values) for each bispecific antibody.
(In SPR one partner is held on a chip, and binding of the other changes the refractive index at the surface.)

Assay [2] deals with human DLL4-Fc (Homo sapiens, UniProt Q9NR61). The experiment in a line: Biacore binding affinity (KD) to human DLL4. To be noted: Biacore 2000, human DLL4-Fc on CM5 chip; read-out: KD hDLL4. On the procedure: as §1
Chain of human DLL4-Fc (Q9NR61 27-522 limits assumed): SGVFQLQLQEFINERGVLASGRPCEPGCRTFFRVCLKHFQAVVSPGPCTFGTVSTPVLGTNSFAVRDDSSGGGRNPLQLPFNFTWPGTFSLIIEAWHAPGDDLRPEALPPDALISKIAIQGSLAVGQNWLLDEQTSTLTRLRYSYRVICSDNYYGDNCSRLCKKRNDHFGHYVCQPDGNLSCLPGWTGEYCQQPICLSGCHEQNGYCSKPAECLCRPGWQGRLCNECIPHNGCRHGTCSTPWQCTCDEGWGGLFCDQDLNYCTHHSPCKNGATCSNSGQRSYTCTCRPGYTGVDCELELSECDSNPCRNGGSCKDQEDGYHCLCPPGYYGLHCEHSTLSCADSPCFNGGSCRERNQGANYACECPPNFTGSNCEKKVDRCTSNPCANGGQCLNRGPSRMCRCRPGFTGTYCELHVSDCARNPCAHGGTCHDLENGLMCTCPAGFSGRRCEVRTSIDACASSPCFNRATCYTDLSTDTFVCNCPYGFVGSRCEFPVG
Several additional anti-DLL4 antibodies were identified that had binding affinities intermediate to the KDs of 21M18 and 21R79. Two of these anti-DLL4 antibodies were used to produce anti-VEGF/anti-DLL4 bispecific antibodies 219R45-MB-21R75 and 219R45-MB-21R83. Using the Biacore 2000 system as described above, the KDs of the bispecific antibodies 219R45-MB-21R75 and 219R45-MB-21R83 to human DLL4 were determined.

Assay [3] deals with VEGF-induced proliferation of HUVEC cells. The experiment in a line: HUVEC proliferation assay. It counts as cell-based, human. Particulars: hVEGF 5 ng/ml, Alamar Blue on day 7. On the procedure: FIG. 3. Inhibition of VEGF-induced HUVEC proliferation by anti-VEGF/anti-DLL4 bispecific antibodies. Fluorescence intensity is read using an excitation wavelength of 530 nm and an emission wavelength of 590. 219R45-MB-21M18 (-●-); 219R45-MB-21R79 (-▴-); 219R45 (-▪-); Medium with no VEGF (-⋄-).
HUVEC cells were obtained from Lonza (Walkersville, Md.) and cultured in growth media (M199, 10% heat-inactivated FBS (HI-FBS), 50 μg/ml EGS, 1X heparin, 1 mM L-glutamine). For the HUVEC proliferation assay, a 96-well plate was pre-coated with 50 μl of 10 μg/ml rat tail collagen type I solution (collagen I in 0.02N acetic acid) and incubated at 4° C. overnight. After incubation, the plate was thoroughly aspirated to remove unbound collagen I solution and washed once with 200 μl DPBS. The HUVEC cells were removed from the surface of the growth flasks using an endothelial cell subclone reagent and centrifuged at 1200 rpm for 5 minutes at 4° C. The cells were resuspended in starvation/assay medium (M199 and 2% HI-FBS, 1× heparin, 5 U/ml heparin-glutamine) at a density of 10^5 cells/ml. The cells were seeded into the collagen-coated assay plate at 5000 cells/well, 50 ul/well. The cells were incubated for 3 hours at 37° C., washed one time, refed with 100 ul assay media, and incubated overnight at 37° C. The next day, bispecific antibodies 219R45-MB-21M18, 219R45-MB-21R79, parental antibody 219R45, or control antibody LZ1 were prepared in a mixture with human VEGF (R&D Biosystems, Minneapolis, Minn.). The antibodies were serially diluted 5-fold from […] to 0.25 nM in assay buffer in combination with hVEGF (final concentration 5 ng/ml). The mixture was pre-incubated at 37° C. for 2 hours. The medium was removed from the assay plate, and 100 μl of the antibody/hVEGF mixture was added to each well. […] The plate was read with a SpectraMax M5e Microplate reader (Molecular Devices, Sunnyvale CA) using a excitation wavelength of […] and an emission wavelength of 590 nm.
Background: Resazurin is reduced to fluorescent resorufin, in cell work by metabolically active cells.

The target of assay [4] is mouse DLL4-Fc. As to the kind of experiment: Biacore binding affinity (KD) to mouse DLL4. Particulars: Biacore 2000, mouse DLL4-Fc on CM5 chip; read-out: KD mDLL4. On the procedure:
as §1

For assay [5], the target named is T2, human VEGF165 (Homo sapiens, UniProt P15692).
T2 sequence (P15692 27-191 isoform P15692-4): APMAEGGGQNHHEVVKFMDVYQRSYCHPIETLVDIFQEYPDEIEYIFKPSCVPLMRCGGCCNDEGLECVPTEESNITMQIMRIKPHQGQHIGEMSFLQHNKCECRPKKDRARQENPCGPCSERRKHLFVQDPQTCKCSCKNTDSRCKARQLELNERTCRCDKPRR
As to the kind of experiment: Biacore binding affinity (KD) to human VEGF. To be noted: Biacore 2000, biotinylated human VEGF165 on streptavidin chip; read-out: KD hVEGF. The procedure:
as §1

Assay [6] relates to DLL4-induced Notch signaling. As to the kind of experiment: DLL4-induced Notch signaling luciferase reporter assay in Notch2-expressing PC3 cells. It counts as cell-based. To be noted: coated human DLL4 100 ng/well, antibody 20 to 0.064 ug/ml. The procedure:
FIG. 4. Inhibition of DLL4-induced Notch signaling by anti-VEGF/anti-DLL4 bispecific antibodies. Luciferase activity was measured using a dual luciferase assay kit with firefly luciferase activity normalized to Renilla luciferase activity. 219R45-MB-21M18 (-●-); 219R45-MB-21R79 (-▪-); 21M18 (-∘-); 21R79 (-□-).
Human PC3 cells were transfected with an expression vector encoding a full-length human Notch2 receptor and a firefly luciferase reporter vector (8× CBF-luciferase reporter) that is responsive to Notch signaling. The cells were also transfected with a Renilla luciferase reporter (Promega, Madison, Wis.) as an internal control for transfection efficiency. Purified human DLL4 protein was coated onto 96-well plates at 100 ng/well and Notch2-expressing PC3-luc cells were added to the wells. Anti-VEGF/anti-DLL4 bispecific antibodies 219R45-MB-21M18, 219R45-MB-21R79, parental anti-DLL4 antibodies 21M18, 21R79 or a control antibody LZ1 were serially diluted 5-fold from 20 ug/ml to 0.064 ug/ml, added to the appropriate wells, and incubated overnight. Luciferase activity was determined using a dual luciferase assay kit (Promega, Madison, Wis.) with firefly luciferase activity normalized to Renilla luciferase activity.
(In general: In a reporter assay the amount or activity of a reporter protein is the signal.)

Chain of mouse DLL4-Fc (Q9JI71 27-519 limits assumed): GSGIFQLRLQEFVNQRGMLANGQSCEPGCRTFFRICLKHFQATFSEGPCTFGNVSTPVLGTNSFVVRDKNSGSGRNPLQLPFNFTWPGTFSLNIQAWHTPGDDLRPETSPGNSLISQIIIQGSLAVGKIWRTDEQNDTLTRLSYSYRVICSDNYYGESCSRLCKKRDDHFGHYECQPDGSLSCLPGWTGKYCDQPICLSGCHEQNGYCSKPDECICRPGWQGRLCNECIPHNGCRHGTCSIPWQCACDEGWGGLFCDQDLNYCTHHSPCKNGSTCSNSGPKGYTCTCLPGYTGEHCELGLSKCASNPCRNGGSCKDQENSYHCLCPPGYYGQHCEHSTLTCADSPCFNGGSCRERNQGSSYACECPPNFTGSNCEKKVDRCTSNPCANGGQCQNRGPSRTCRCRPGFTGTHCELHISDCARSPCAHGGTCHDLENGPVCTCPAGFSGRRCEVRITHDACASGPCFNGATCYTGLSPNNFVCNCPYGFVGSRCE

B1: 219R45: monoclonal antibody that specifically binds human VEGF; parental anti-VEGF antibody (antibody)
heavy: QVQLVQSGAEVKKPGASVKVSCKASGYTFTNYWMHWVRQAPGQGLEWMGDINPSNGRTSYKEKFKRRVTLSVDKSSSTAYMELSSLRSEDTAVYFCTIHYDDKYYPLMDYWGQGTLVTVSSASTKGPSVFPLAPCSRSTSESTAALGCLVKDYFPEPVTVSWNSGALTSGVHTFPAVLQSSGLYSLSSVVTVPSSNFGTQTYTCNVDHKPSNTKVDKTVERKCCVECPPCPAPPVAGPSVFLFPPKPKDTLMISRTPEVTCVVVDVSHEDPEVQFNWYVDGVEVHNAKTKPREEQFNSTFRVVSVLTVVHQDWLNGKEYKCKVSNKGLPAPIEKTISKTKGQPREPQVYTLPPSREEMTKNQVSLTCLVKGFYPSDIAVEWESNGQPENNYKTTPPMLDSDGSFFLYSKLTVDKSRWQQGNVFSCSVMHEALHNHYTQKSLSLSPGK
light: DIVMTQSPDSLAVSLGERATISCRASESVDNYGISFMKWFQQKPGQPPKLLIYAASNQGSGVPDRFSGSGSGTDFTLTISSLQAEDVAVYYCQQSKEVPWTFGGGTKVEIKRTVAAPSVIFPPSDEQLKSGTASVVCLLNNFYPREAKVQWKVDNALQSGNSQESVTEQDSKDSTYSLSSTLTLSKADYEKHKVYACEVTHQGLSSPVTKSFNRGEC
The Kd is the equilibrium constant for the complex coming apart. Regarding B1, the Kd is about 23 nM in assay [1], over 100 nM in assay [2] and over 100 nM in assay [4]. Also, the “inhibition of VEGF-induced HUVEC proliferation” value in assay [3] is listed as “inhibited HUVEC proliferation”.

B2: 21R79: monoclonal antibody that specifically binds human DLL4; parental anti-DLL4 antibody (antibody)
heavy: QVQLVQSGAEVKKPGASVKISCKASGYSFTAYYIHWVKQAPGQGLEWIGYIANYNRATNYNQKFKGRVTFTTDTSTSTAYMELRSLRSDDTAVYYCARDYDYDVGMDYWGQGTLVTVSSASTKGPSVFPLAPCSRSTSESTAALGCLVKDYFPEPVTVSWNSGALTSGVHTFPAVLQSSGLYSLSSVVTVPSSNFGTQTYTCNVDHKPSNTKVDKTVERKCCVECPPCPAPPVAGPSVFLFPPKPKDTLMISRTPEVTCVVVDVSHEDPEVQFNWYVDGVEVHNAKTKPREEQFNSTFRVVSVLTVVHQDWLNGKEYKCKVSNKGLPAPIEKTISKTKGQPREPQVYTLPPSREEMTKNQVSLTCLVKGFYPSDIAVEWESNGQPENNYKTTPPMLDSDGSFFLYSKLTVDKSRWQQGNVFSCSVMHEALHNHYTQKSLSLSPGK
light: B1 light
In the case of B2, the Kd in assay [1], in assay [5] and in assay [4] was over 100 nM in each case. In assay [6], the “inhibition of DLL4-induced Notch signaling” value is reported as “inhibited DLL4-induced Notch signaling”.
